Common to all, as to conditions: both partners purified
Test [1] has as its target T1, Sabin poliovirus type 1 capsid (live) (Poliovirus type 1, Sabin (live), UniProt P03301, strain, biotin (EZ-Link Micro Sulfo-NHS-Biotinylation Kit) | biotin (EZ-Link Micro Sulfo-NHS-Biotinylation Kit) | biotin (EZ-Link Micro Sulfo-NHS-Biotinylation Kit)).
T1 construct: also called SPV1; Sabin serotype 1; copies: + + +
As to the kind of experiment: BLI. Background: Biolayer interferometry detects binding as a change in optical thickness at a sensor tip.

Test [2] has as its target T2, Sabin inactivated poliovirus type 2 capsid (Poliovirus type 2, Sabin strain …, strain).
T2 construct: also called SIPV2; ISPV2; copies: + + +
The test is described as follows: BLI.

In test [3] the target is T3, wild-type poliovirus type 2 capsid (Poliovirus type 2, wild type; strain …, strain).
T3 construct: also called WTPV2; wild-type PV2; copies: + + +
T3 chain 1: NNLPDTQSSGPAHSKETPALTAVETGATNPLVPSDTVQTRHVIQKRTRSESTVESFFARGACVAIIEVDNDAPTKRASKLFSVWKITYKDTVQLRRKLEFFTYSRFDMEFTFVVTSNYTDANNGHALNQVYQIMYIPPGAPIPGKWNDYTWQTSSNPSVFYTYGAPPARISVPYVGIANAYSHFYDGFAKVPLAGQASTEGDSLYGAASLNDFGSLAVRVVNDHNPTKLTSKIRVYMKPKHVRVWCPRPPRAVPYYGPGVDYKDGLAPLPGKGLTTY
T3 chain 2: not shown
T3 chain 3: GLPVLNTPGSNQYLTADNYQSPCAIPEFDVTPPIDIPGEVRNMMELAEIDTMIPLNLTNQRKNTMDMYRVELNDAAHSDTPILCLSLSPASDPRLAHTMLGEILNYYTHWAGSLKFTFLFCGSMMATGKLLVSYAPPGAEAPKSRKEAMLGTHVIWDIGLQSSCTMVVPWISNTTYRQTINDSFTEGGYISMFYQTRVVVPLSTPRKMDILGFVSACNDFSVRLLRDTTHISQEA
As to the kind of experiment: cryo-EM structure.

In test [4] the target is T4, wild-type poliovirus serotype 2 capsid (Poliovirus type 2, wild type; strain …, strain).
T4 construct: also called WTPV2; wild-type PV2; copies: + + +
T4 chain 1: T3 chain 1
T4 chain 2: not shown
T4 chain 3: T3 chain 3
As to the kind of experiment: cryo-EM structure.

B1: 9H2 fragment antigen-binding (Fab) (Fab, V domains shown)
VH: LVQSGAELKKPGASVKFSCQASGFTFTTYDIHWVRQAPGQGLEWMGMISPSRDSTIYAQKFQGRVTMTSDTSTSTVYMELTSLRSEDTALYYCATASRPSAWVFRSLYTYYYMDVWGTGTTVTVSS
VL: QSALTQPASVSGSPGQSITISCTGTITDIGYYNYVSWYQQHPGKAPKLIIFDVTNRPSGVSDRFSGSKSGNTASLTISGLQAEDEGDYYCFSHRSNNIRVFGGGTKLTVL
notes: also called 9H2 Fab; Fab 9H2
In general, Kd refers to a measure of binding affinity in units of concentration. A low value points to higher affinity. In general, koff refers to the rate constant with which the complex falls apart. Read a low koff as slow dissociation. As a reminder, the kon is the rate constant with which the complex forms. Read a low kon as slower complex formation. B1: in test [1], the Kd is 936 µM, the koff was 1.05 s⁻¹ and the kon is 1120 M⁻¹ s⁻¹. In test [2], this molecule displayed a Kd of 2.1 µM, a koff of 0.483 s⁻¹ and a kon of 230000 M⁻¹ s⁻¹. The binding result in test [3] is “binds”.

B2: 9H2 fragment antigen-binding (Fab) (Fab, V domains shown)
VH: B1 VH
VL: B1 VL
notes: also called 9H2 Fab; Fab 9H2
Regarding B2, the binding result in test [4] was “binds”.
